Where a chain is given by its changes, count along the chain named. Numbers in names are those of the source.

The target in assay [1] is PP2A Aα subunit (human) (UniProt P30153). Put plainly: MST.
In assay [2] the target is T1, PP2A Cα subunit (human, UniProt P67775 2-309). Put plainly: BLI.
Assay [3] deals with T2, PP2A(B55α) holoenzyme (human, UniProt P30153 1-589; P63151 1-447; P67775 2-309). Put plainly: BLI.
The target of assay [4] is T2, PP2A(B55α) holoenzyme. Put plainly: BLI. The source holds these as a separate data set. A general note: In BLI a coated tip is dipped into the sample, and binding shifts an interference pattern.
Assay [5] addresses T1, PP2A Cα subunit. In words: cryo-EM structure.

T2 sequence (P30153 whole entry, chain 1 of 3): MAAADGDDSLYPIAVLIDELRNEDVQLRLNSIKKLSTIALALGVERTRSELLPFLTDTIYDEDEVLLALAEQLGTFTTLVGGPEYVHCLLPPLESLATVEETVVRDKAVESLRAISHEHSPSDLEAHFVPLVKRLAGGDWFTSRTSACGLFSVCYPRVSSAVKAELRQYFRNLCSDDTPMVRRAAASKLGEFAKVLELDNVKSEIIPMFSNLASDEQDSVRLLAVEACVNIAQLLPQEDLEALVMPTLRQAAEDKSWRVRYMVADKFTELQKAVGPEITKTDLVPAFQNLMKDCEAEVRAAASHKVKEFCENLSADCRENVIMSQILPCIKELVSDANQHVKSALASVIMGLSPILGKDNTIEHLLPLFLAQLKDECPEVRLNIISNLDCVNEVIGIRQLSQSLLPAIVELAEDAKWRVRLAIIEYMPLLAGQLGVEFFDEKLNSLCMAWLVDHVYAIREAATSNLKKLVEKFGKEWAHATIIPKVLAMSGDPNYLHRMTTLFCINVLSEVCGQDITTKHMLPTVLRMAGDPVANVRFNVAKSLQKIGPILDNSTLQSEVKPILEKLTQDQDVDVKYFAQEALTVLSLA
T2 sequence (P63151 whole entry, chain 2 of 3): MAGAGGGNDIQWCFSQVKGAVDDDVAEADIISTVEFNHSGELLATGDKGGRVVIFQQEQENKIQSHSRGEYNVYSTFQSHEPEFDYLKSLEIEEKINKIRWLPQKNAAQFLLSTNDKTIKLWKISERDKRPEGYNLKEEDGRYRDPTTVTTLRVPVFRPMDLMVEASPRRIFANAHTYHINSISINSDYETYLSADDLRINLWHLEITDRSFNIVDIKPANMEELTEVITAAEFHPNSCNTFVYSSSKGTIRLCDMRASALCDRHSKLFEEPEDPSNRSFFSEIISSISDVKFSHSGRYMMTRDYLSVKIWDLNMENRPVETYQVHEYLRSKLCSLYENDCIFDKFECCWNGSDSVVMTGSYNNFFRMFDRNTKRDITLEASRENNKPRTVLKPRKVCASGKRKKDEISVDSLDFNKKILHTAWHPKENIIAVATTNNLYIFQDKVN
T2 sequence (P67775 2-309, chain 3 of 3): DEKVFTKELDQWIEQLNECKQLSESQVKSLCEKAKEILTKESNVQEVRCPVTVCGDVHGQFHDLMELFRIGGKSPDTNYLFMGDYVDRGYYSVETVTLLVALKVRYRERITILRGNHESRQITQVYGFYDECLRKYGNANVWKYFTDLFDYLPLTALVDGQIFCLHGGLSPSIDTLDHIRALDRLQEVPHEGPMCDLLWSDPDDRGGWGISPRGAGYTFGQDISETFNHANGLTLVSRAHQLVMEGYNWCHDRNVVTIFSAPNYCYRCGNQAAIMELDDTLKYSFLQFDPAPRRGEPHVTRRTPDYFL
Chain of PP2A Aα subunit (human) (P30153 whole entry): as the sequence (P30153 whole entry, chain 1 of 3) above
T1 sequence (P67775 2-309): as the sequence (P67775 2-309, chain 3 of 3) above

“tag-free ENSA^WT (from UniProt O43768 1-121) (natural protein)” displayed a dissociation constant (Kd) in assay [1] of 600 µM.

In the case of “tag-free ENSA^S67D (from UniProt O43768 1-121) (natural protein)”, the Kd in assay [1] is 800 µM.

B1: GST-ENSA^S67D-His6 (natural protein, human, UniProt O43768 1-121, looked up)
chain: MSQKQEEENPAEETGEEKQDTQEKEGILPERAEEAKLKAKYPSLGQKPGGSDFLMKRLQKGQKYFDDGDYNMAKAKMKNKQLPSAGPDKNLVTGDHIPTPQDLPQRKSSLVTSKLAGGQVE
Turning to B1, the binding result in assay [2] is recorded as “binds”. The molecule further showed an equilibrium dissociation constant (Kd) in assay [3] of 0.66 µM.

B2: GST-ENSA^S67D K40A-His6 (natural protein, human, UniProt O43768 1-121, looked up)
chain: B1 chain with K40A
On to B2, for which the binding result in assay [4] is “binds”.

B3: GST-ENSA^S67D R57A-His6 (natural protein, human, UniProt O43768 1-121, looked up)
chain: B1 chain with R57A
As to B3, the binding result in assay [4] was “binds”.

B4: GST-ENSA^WT-His6 (natural protein, human, UniProt O43768 1-121, looked up)
chain: B1 chain with D67S
B4 gave a Kd in assay [3] of 1.45 µM.

B5: GST-ENSA^S67D E30A-His6 (natural protein, human, UniProt O43768 1-121, looked up)
chain: B1 chain with E30A
For the molecule B5, in assay [4], the binding result is “binds”.

B6: His6-TEV site-ENSA^S67D (natural protein, human, UniProt O43768 1-121, looked up)
chain: B1 chain
With B6, the binding result in assay [5] was “binds”.

Usually Kd stands for the equilibrium constant for the complex coming apart.

(Values after paper doi:10.64898/2025.12.13.693833 (bioRxiv, 2025).)
